Laboratory results: the supplement of paper PMC9170038

System: MS2 coat protein
Experiment: apparent KD of MS2 coat protein; designed switch direction (-1 OFF switch, 1 ON switch): -1; higher = weaker reporter binding
Method in brief: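 On Illumina chips, designed RNA switches with common flanks were made by stalled E. coli RNA polymerase. Titrations with SNAP-549-labelled MS2 coat protein, doubling from 0.7 or 1.5 nM to 3 µM, were done with no input, with 200 uM small-molecule ligand, or with an oligonucleotide input. Apparent KD is the median per design over clusters, from curve fits of normalised cluster fluorescence.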

[1] = Eterna round: R95, input ligand: FMN 200 uM
[2] = Eterna round: R95, input ligand: microRNA oligo, concentration not stated
[3] = Eterna round: R95, input ligand: none
[4] = input ligand: microRNA oligo, concentration not stated

Sequence | apparent KD of MS2 coat protein (input ligand: FMN 200 uM) [µM] | apparent KD of MS2 coat protein (input ligand: none) [µM] | apparent KD of MS2 coat protein [1] [µM] | apparent KD of MS2 coat protein [2] [µM] | apparent KD of MS2 coat protein [3] [µM] | apparent KD of MS2 coat protein [4] [µM]
UUGCCGCGAGGAUAUAUAGACGGGUUCAAUACGUGUCUCGGACUUGAGGAUCACCCAAGUAGAAGGCUUUUUAU [LRO-Excl2-12-mod _r4_621 by salish99] (Eterna round: R97, puzzle: Exclusion 2) | 0.0155 | 0.0147 | – | – | – | –
AAGUACCGUCACGAAAGUGAUGGUACAGCAAGCAAAUGUACAUGAGGAUCACCCAUGUCCUCAAUUGCUCGUCUUAU [Sensor 3 - 58] (puzzle: Sensor v3, turn-off variant 2) | – | – | 0.0817 | 0.181 | 0.0874 | –
ACAAGCAGAGGUGUGCGACACAUGAGGAUCACCCAUGUCGUCUGCCUCUGUGCAGAGGCUUUUUGCUCGUACUUAUU [Sensor V1 S3] (Eterna round: R97, puzzle: Sensor, turn-off variant 1) | 0.0201 | 0.0193 | – | – | – | –
UUUUUAUAUGAAGGAUAUACUUAACAUGAGGAUCACCCAUGUGGUGUUGUGAGUGAGUGAGUUUAGUAGAAGGUCAAUUCUUUU [JMF's solution 11] (Eterna round: R96, puzzle: Exclusion NG 2) | 0.957 | 0.51 | – | – | – | 0.395
AUUUAGAGAGGAUAUAUAUUGUGAAACAUGAGGAUCACCCAUGUAAUAAUAUGGAUGUAAAUAGAAGGCUCAUUUU [Mat - Exclusion 5 - JL mod - D10] (puzzle: Exclusion 5) | – | – | 0.0402 | 0.0374 | 0.0418 | –
UCACGGGACUAAGGAUAUAUGUGUACCAUUUUCAUAGAAGGUAGAAUGUUUGAUCAUAAACUAAACAUGAGGAUCACCCAUGUU [JR_ExcNG1_Sub091] (Eterna round: R96, puzzle: Exclusion NG 1) | – | – | – | – | – | 0.0206
UUUUUUUGGCAAGGAUAUCCUGUGCGGUUCCGGCUCGUGUCUGUUACAUGAGGAUCACCCAUGUGGGAGAAGGUGCCUGUGGUU [Design 87] (Eterna round: R96, puzzle: Exclusion NG 2) | 0.0828 | 0.0328 | – | – | – | 0.0368
UGAUCAGACCGAGGAUAUACAUGUAGGACCCACGUGAGUGGGUCCAGUACAUGAGGAUCACCCAUGUAGAAGGCGGUCUGAUCU [JL ENG2 1.89] (Eterna round: R96, puzzle: Exclusion NG 2) | 0.241 | 0.0946 | – | – | – | 0.0706
ACAUGAGGAUCACCCAUGUCUGGCGGGUCCUCUCCGGCUGUUGAGGAUAUAGUCCGGUAUCCGCGCUAGAAGGUGAGGGCCGGC [Aenatbe mod 19] (Eterna round: R96, puzzle: Exclusion NG 3) | 0.0218 | 0.0235 | – | – | – | 0.0138
CCUCUGUGAGGAUAUGGGCCCGGGCCCGUGAGGGCCCGGGCCCAGAAGGCACAUGAGGAUCACCCAUGUGGCUU [Energy optimization 2] (Eterna round: R97, puzzle: Exclusion 4) | 0.0944 | 0.02 | – | – | – | –
AAUAAUAAUGUGAGGAUAUCUAGAGCCUCGGCUCUAGAGAAGGCACAUGAGGAUCACCCAUGUCUCAAUAAUAA [BmEx4/2-E5] (Eterna round: R97, puzzle: Brourd's mod of Exclusion 4) | 0.307 | 0.0528 | – | – | – | –
CUGGUCCGAGGAUAUAUUUUGUGAAACAUGAGGAUCACCCAUGUAAUAAAAUGGAUGUAAAUAGAAGGCGGACUAG [Mat - Exclusion 5 - JL mod - D40] (puzzle: Exclusion 5) | – | – | 0.0267 | 0.029 | 0.03 | –
UUUUAAUAUGAAGGAUAUACUUAACAUGAGGAUCACCCAUGUGGUGUUGUGAGUGAGUGAGUUUAGUAGAAGGUCAAGUAUUUU [JMF's solution 47] (Eterna round: R96, puzzle: Exclusion NG 2) | 0.703 | 0.428 | – | – | – | 0.559
GCACAUGCAGGAUAUGUAAAAUUUGACAUGAGGAUCACCCAUGUAGAUCCUGAAUUUCCUGCAGAAGGGCAUGUGC [Mat - Exclusion 5 - Eli Mod - D17] (Eterna round: R97, puzzle: Exclusion 5) | 0.345 | 0.0988 | – | – | – | –
AGCAGACGAGGAUAUAGAUUUAAGUACAUGAGGAUCACCCAUGUACAUAUGUAUUUAGAUUUAGAAGGCGUCUGCU [E5/16-A1] (Eterna round: R97, puzzle: Exclusion 5) | 0.0277 | 0.0286 | – | – | – | –
AGUUGGCGAGGAUAUACAUGAGGAUCACCCAUGUGAGAGAGACUAGUGAGGUCGAUUAGUAGAAGGCGCUGACA [Mat X3R4 m11] (Eterna round: R97, puzzle: Exclusion 3) | 0.455 | 0.0293 | – | – | – | –
CAGUACUGAGGAUAUACAUGAGGAUCACCCAUGUGUGUGAGAAUUGUGUGGUUGUUUUGUAGAAGGCGGUGCUG [JR_Ex3_Sub032] (Eterna round: R97, puzzle: Exclusion 3) | 0.326 | 0.346 | – | – | – | –

Sequence | apparent KD of MS2 coat protein (input ligand: FMN 200 uM) [µM] | apparent KD of MS2 coat protein (input ligand: none) [µM] | apparent KD of MS2 coat protein [1] [µM] | apparent KD of MS2 coat protein [2] [µM] | apparent KD of MS2 coat protein [3] [µM] | apparent KD of MS2 coat protein [4] [µM]
CUGUGCACGCUGCGAUCCUACAUGAGGAUCACCCAUGUGGUCUGGUGGCGUGGGUCACCGGACUUGGCUCGUCUUGA [salish99_S_TOV1_R5_070] (Eterna round: R97, puzzle: Sensor, turn-off variant 1) | 0.147 | 0.156 | – | – | – | –
GUAUAACUACACGGGCUCAACAUGAGGAUCACCCAUGUAAUAUACGCAAGCUUUUUGCUUGUCUUAUCUGUCCGUGA [Aanrius] (puzzle: Sensor v3, turn-off variant 1) | – | – | 0.0123 | 0.00956 | 0.0114 | –
GCGCCAUCGUGAGAUGGCGUAACUACAUGAGGAUCACCCAUGUAGGAUAUCGAUUGCUUUGCAGUCGAGAAGGGCAAGGGAUAU [JL ENG3 3.87] (Eterna round: R96, puzzle: Exclusion NG 3) | 0.0153 | 0.0169 | – | – | – | 0.0135
AUAGGAGGAGGAUAUGAAACCGAUAACAUGAGGAUCACCCAUGUCGAAAGAACUUUCCGGUCAGAAGGCCUGAUGU [Eternabot (L2) Solution 60] (Eterna round: R97, puzzle: Exclusion 5) | 0.0163 | 0.0251 | – | – | – | –
GUUUUGAGACGGAGAUCCGACAUGAGGAUCACCCAUGUCUCGCAAGCUUUUUGCUCGUCUUAUACUCCUCUGUUCUC [Elimod 45 - Jieux - Sensor, turn-off variant 1] (Eterna round: R97, puzzle: Sensor, turn-off variant 1) | 0.0178 | 0.0171 | – | – | – | –
AUCAGCUCGUCAGGAUAUACAUGAUAGAUCGAUUAAUUAAUUAAUUUAACAUGAGGAUCACCCAUGUAGAAGGGACGAGCUGAU [ENG2/1-B3] (Eterna round: R96, puzzle: Exclusion NG 2) | – | – | – | – | – | 0.0393
CUCUUGGCAGGAUAUGCAAUUUUAGACAUGAGGAUCACCCAUGUGAUCAUUCCAUAUUAUGCAGAAGGGCCUAAAC [JR_E5_Sub049] (Eterna round: R96, puzzle: Exclusion 5) | 0.238 | 0.0392 | – | – | – | 0.0274
GGUGGACAUGAGGAUCACCCAUGUGAGGAUAUCGGCUGUCUACUCGCUGACGGCUGCUCGAGAAGGCGCAUUGU [Exclusion 1 V89] (puzzle: Exclusion 1) | – | – | – | 0.0386 | – | –
UGUACGAUGCGUGCUGACAUGCGUCGUGCAGCAGGUGAUACAUGAGGAUCACCCAUGUCCUCAUUUGCUCGUCUUGA [Mat - Sensor v3 - Turn-off var 2 - D20] (puzzle: Sensor v3, turn-off variant 2) | – | – | 0.0685 | 0.475 | 0.0752 | –
UAGAAGGUAGGAUAUACGAAUAAAUAGGGUAGUAAGAAUACACAUGAGGAUCACCCAUGUAGAAGGACCAAGAU [Mat - Exclusion 2 - Mod of my Tesla design - D32] (puzzle: Exclusion 2) | – | – | 0.0431 | 0.0195 | 0.0209 | –
AACGAUACGCUCAUAAGAACAUGAGGAUCACCCAUGUGUGGUGAGGAUAUCCACCCAGAGGGAAAGGAGAAGGUACCAGUGGGC [Ries] (Eterna round: R96, puzzle: Exclusion NG 3) | 0.0313 | 0.061 | – | – | – | 0.0618
GAGAAACAUGAGGAUCACCCAUGUAAGGAUAUGCUGAAAACAACGGAUAAAACGUGCAGCAGAAGGUACAAAGG [Mat - Mod of my Eli Mod D41] (puzzle: Exclusion 1) | – | – | 0.0765 | 0.0721 | 0.0724 | –
CGUCUACCAAAACCGAACAACAUGAGGAUCACCCAUGUCACUCCGCCUUAAACCUACGGAGUAAAGUGGGCGCAAAA [Vesocegeer] (Eterna round: R96, puzzle: Sensor v2, turn-off variant) | 0.0322 | 0.0332 | – | – | – | 0.0285
CUGAGGUAGCGGUCCUAUGACAUGAGGAUCACCCAUGUACCUCGCUACGAGCUUUUUGCUCGUCUUAUAAUUCUCGG [JL Atriat mod 2] (puzzle: Sensor v3, turn-off variant 1) | – | – | 0.573 | 0.141 | 0.643 | –
GACUGGGCAGGAUAUACAUGAGGAUCACCCAUGUGUCUGCGUCAGGCACGUGUAGACGGUAGAAGGGCCUACAC [ChP 13.04.2015 #16] (puzzle: Exclusion 3) | – | – | – | 0.0119 | – | –
GUCAGCUCGUCAGGAUAUACAUGAGGAUCACCCAUGUGGUCAAUAGCAGCUUCGGCUGCAUACAUGUAGAAGGGACGAGCUGAC [ENG2/7-B1] (Eterna round: R96, puzzle: Exclusion NG 2) | 0.0188 | 0.0782 | – | – | – | 0.00688
